# Test results published in patent publication US7455837B2, “Compositions and methods for the diagnosis and treatment of sepsis” (The Regents of the University of Michigan, priority 2002, dated 2008).
# T1: mouse C5a receptor (mouse, UniProt P30993 1-351)
# T1 construct: whole, on cells
# T1 sequence (looked up): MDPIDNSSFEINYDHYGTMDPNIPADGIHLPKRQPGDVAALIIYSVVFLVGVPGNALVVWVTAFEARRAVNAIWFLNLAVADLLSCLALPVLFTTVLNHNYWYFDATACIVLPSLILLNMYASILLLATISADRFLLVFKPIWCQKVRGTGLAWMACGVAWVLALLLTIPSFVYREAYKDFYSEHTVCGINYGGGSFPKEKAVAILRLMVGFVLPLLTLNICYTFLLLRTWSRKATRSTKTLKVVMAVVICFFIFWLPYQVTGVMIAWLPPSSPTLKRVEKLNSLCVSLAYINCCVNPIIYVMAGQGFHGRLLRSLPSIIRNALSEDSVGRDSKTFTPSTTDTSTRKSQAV
# T2: C5aR on mouse peritoneal neutrophils (Mus musculus, UniProt P30993)
# T2 construct: Mice were injected i.p. with 2.5 mL sterile 3% thioglycolate medium (DIFCO Laboratories, Detroit, Mich.) for harvesting of mouse neutrophils; endogenous in cells; host or cells: mouse peritoneal neutrophils (thioglycolate-elicited, whole cells)
# T2 sequence (P30993 1-351): T1 sequence (looked up)
# B1: recombinant mouse C5a (ligand, UniProt P06684 679-755, looked up)
# chain: NLHLLRQKIEEQAAKYKHSVPKKCCYDGARVNFYETCEERVARVTIGPLCIRAFNECCTIANKIRKESPHKPVQLGR
# modifications: 125I label (chloramine T) on the tracer form only; the competitor was unlabeled
# notes: domain: C5a; Expressed in E. coli BL21(DE3) pLysS from pET 15b (NdeI/BamHI) and purified over a Ni2+ column; C5a is only a fragment of it; also called mC5a; recombinant mouse (m) C5a
# B2: mC5a: recombinant mouse C5a expressed in BL21 (DE3) pLysS cells, purified over a Ni2+ column (protein)
# chain: B1 chain
# Tests used:
# mouse neutrophils [1] = assay: Chemotaxis assay of mouse neutrophils to mC5a; format: cell-based
# Protocol: Five hours later, mice were killed and the peritoneal cavity was lavaged four times with 10 mL DPBS. Fluids were centrifuged and residual red blood cells removed by a hypotonic lysis step. Remaining peritoneal cells were washed and resuspended in HBSS.
# After neutrophil isolation, cells were fluorescein-labeled with BCECF (2′,7′-bis [2-carboxyethyl]-5-[and 6]-carboxy-fluorescein acetoxymethyl ester) (Molecular Probes, Eugene, Oreg.). Labeled neutrophils (5×10^6 cells/mL) were then loaded into the upper chambers of 96-well minichambers (NeuroProbe, Cabin John, Md.). […] The upper and lower chambers were separated by a polycarbonate membrane of 3 μm porosity. Minichambers were incubated for 60 min at 37° C. The number of cells migrating through polycarbonate filters to the lower surface was measured by cytofluorometry (Cytofluor II, PerSeptive Biosystems, Framingham, Mass.). For each measurement, quadruplicate samples were used.
# mouse C5a receptor = biological target: T1, mouse C5a receptor; assay: competition of unlabeled mC5a with 100 pM 125I-mC5a on mouse peritoneal neutrophils, 20 min at 4 C
# Protocol: Isolated neutrophils were incubated for 1 h at 4° C. in binding buffer (HBSS without Ca^2+ and containing 1% BSA) to block nonspecific surface binding sites. […] After an incubation interval of 20 min at 4° C., cell suspensions were layered over 20% sucrose and sedimented by centrifugation at 11,000 g (Beckman Microfuge B, Palo Alto, Calif.) for 2 min. […] Binding affinities (K_d values) of C5a were calculated in the conventional manner (Chenoweth et al., (1978) *Proc. Natl. Acad. Sci. USA* 75,3943-3947). […]
# Recent reports have described CSaRa binding affinities to rat and human neutrophils (Wong et al., (1998) *J. Med. Chem.* 41,3417-3425; Short et al., (1999) *Br. J. Pharmacol.* 128,511-514). To assess whether C5aRa also binds to mouse neutrophils, competitive binding studies using C5aRa and mC5a were undertaken.
# [2] = biological target: T2, C5aR on mouse peritoneal neutrophils; assay: Competitive binding of 125I-mC5a to mouse peritoneal neutrophils; conditions: recombinant protein
# Protocol: (§1) Mice were injected i.p. with 2.5 mL sterile 3% thioglycolate medium (DIFCO Laboratories, Detroit, Mich.) for harvesting of mouse neutrophils (Ajuebor et al., (1999) J. Immunol. 162,1685-1691). Five hours later, mice were killed and the peritoneal cavity was lavaged four times with 10 mL DPBS. Fluids were centrifuged and residual red blood cells removed by a hypotonic lysis step. Remaining peritoneal cells were washed and resuspended in HBSS. Aliquots of cells were stained with Diff-Quik Stain (Dade International, Miami, Fla.) and examined for neutrophil purity (>95%) and viability (>97%) by trypan blue exclusion (Fildes et al., (1998) J. Trauma 45,479-484).
# For binding studies, mC5a was labeled with […], using the chloramine T-based protocol (Bennett et al., (1997) Methods Enzymol. 288,134-148) with gentle oxidation, which preserves chemotactic activity of mC5a for mouse neutrophils. Isolated neutrophils were incubated for 1 h at 4° C. in binding buffer (HBSS without Ca^2+ and containing 1% BSA) to block nonspecific surface binding sites. […] Binding affinities (Kd values) of C5a were calculated in the conventional manner (Chenoweth et al., (1978) Proc. Natl. Acad. Sci. USA 75,3943-3947). […]
# mouse neutrophils [3] = assay: Neutrophil oxidative burst (H2O2 generation, PMA-stimulated); format: cell-based
# Protocol: as §1
# H2O2 generation was determined in the presence of 1 mM sodium azide. As indicated, mouse neutrophils (2×10^6 cells/mL) were pretreated with mC5a (10 nM) for 60 min at 37° C. in the presence or absence of different amounts of C5aRa. To stimulate neutrophils, cells were then incubated with PMA (25 ng/mL) for an additional 10 min. The reaction was stopped by addition of 0.1 mL trichloroacetic acid (50% v/v), then ferrous ammonium sulfate (1.5 mM) and potassium thiocyanate (0.25 M) were added to supernatant fluids. The absorbance of the ferrithiocyanate complex was measured at 480 nm and compared with a standard curve generated from dilutions of reference solutions of H2O2.
molecule,measurement,setting,value
^125I-C5aRa: C5aRa labeled with 125I by the chloramine T method (FXPXWR; non-natural residues; cyclised or stapled) [reference compound],chemotactic response to mC5a in presence of radiolabeled antagonist,"mouse neutrophils [1]; 10 nM 125I-C5aRa, mC5a 1-100 nM",virtually completely suppressed
B1,Kd,mouse C5a receptor,~3 nM
B2,chemotactic response evoked by the substance alone,mouse neutrophils [1]; 10 nM,robust chemotactic response
same,biological (chemotactic) activity,mouse neutrophils [1]; recombinant protein,had biological (chemotactic) activity
same,binding to mouse neutrophils,[2],high-affinity binding
same,basal H2O2 production vs ctrl cells,"mouse neutrophils [3]; 10 nM alone, 60 min at 37° C., no PMA",neither mC5a alone nor C5aRa alone significantly altered
same,PMA-stimulated H2O2 production after exposure to mC5a,"mouse neutrophils [3]; 10 nM mC5a 60 min, absence of C5aRa, then PMA 25 ng/mL",completely abolished
